Positions of bridges follow the written chain, without caps; N, C: chain ends. Non-standard residues stand in square brackets, D forms with d.
T1: synthetic PSMα1 peptide (phenol soluble modulin α1) (Staphylococcus aureus, N-terminal formylation (fMet 1))
T1 peptide: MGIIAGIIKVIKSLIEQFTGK


Legend:
[1] = target: T1, synthetic PSMα1 peptide (phenol soluble …); assay: cell-based or functional assay
[2] = target: T1, synthetic PSMα1 peptide (phenol soluble …); assay: BLI (BLItz), AP90 (180 µM) immobilized on APS tip, PSMα1 (50 µM) in solution, samples near the end of the aggregation lag phase (α-sheet-rich, about 48 h); lower end of the range; PSMα1 samples near the end of the aggregation lag phase
Procedure: (§1) All biolayer interferometry (BLI) experiments were performed on a BLItz™ biosensor system (ForteBio) using aminopropylsilane (APS) sensors. Sensors were hydrated in ddH₂O+22 μM ThT for 10 minutes prior to use. Designed peptides (dissolved in ddH₂O+22 μM ThT) were loaded onto the APS tip, a baseline was established in ddH₂O+22 μM ThT, and then the association of PSMα1 (prepped with DMSO+ddH₂O+22 μM ThT, as in the fibrillization assay at various pre-incubation times) was monitored over a period of three minutes. Dissociation was subsequently measured in ddH₂O+22 μM ThT, and the equilibrium dissociation constant (KD) was calculated using the BLItz™ analysis software (ForteBio).

[3] = target: T1, synthetic PSMα1 peptide (phenol soluble …); assay: BLI (BLItz), AP90 immobilized on APS tip, PSMα1 (50 µM) pre-incubated 146 h (transition region between α-sheet and β-sheet)
Procedure: as §1

Binder | inhibition of PSMα1 amyloid formation (ThT fluorescence), water + <1% DMSO, 30 µM PSMα1, 1:3 molar ratio PSMα1:AP407 [1] [%] | Kd [2] [µM] | inhibition of PSMα1 amyloid formation (ThT fluorescence), water + <1% DMSO, 30 µM PSMα1, 1:4 molar ratio PSMα1:AP90 [1] [%] | inhibition of PSMα1 fibril formation (ThT fluorescence), LB medium + <1% DMSO, 1:4 molar ratio PSMα1:AP90 [1] [%] | drop in binding affinity against α-sheet-rich PSMα1 (end of lag phase) [3] [fold]
Ac-RGE[dM]N[dL]C[dW]MNEYSGW[dC]M[dN]L[dK]MGR-NH2 (designed binder, disulfide 7-16; SMILES CSCC[C@H](NC(=O)[C@@H](CCCCN)NC(=O)[C@H](CC(C)C)NC(=O)[C@@H](CC(N)=O)NC(=O)[C@H](CCSC)NC(=O)[C@H]1CSSC[C@H](NC(=O)[C@@H](CC(C)C)NC(=O)[C@H](CC(N)=O)NC(=O)[C@@H](CCSC)NC(=O)[C@H](CCC(=O)O)NC(=O)CNC(=O)[C@H](CCCNC(=N)N)NC(C)=O)C(=O)N[C@H](Cc2c[nH]c3ccccc23)C(=O)N[C@@H](CCSC)C(=O)N[C@@H](CC(N)=O)C(=O)N[C@@H](CCC(=O)O)C(=O)N[C@@H](Cc2ccc(O)cc2)C(=O)N[C@@H](CO)C(=O)NCC(=O)N[C@@H](Cc2c[nH]c3ccccc23)C(=O)N1)C(=O)NCC(=O)N[C@@H](CCCNC(=N)N)C(N)=O) [AP407] | 69 |  |  |  | 
Ac-RGE[dM]N[dL]S[dW]MNEYSGW[dT]M[dN]L[dK]MGR-NH2 (designed binder, SMILES CSCC[C@H](NC(=O)[C@@H](CCCCN)NC(=O)[C@H](CC(C)C)NC(=O)[C@@H](CC(N)=O)NC(=O)[C@H](CCSC)NC(=O)[C@H](NC(=O)[C@H](Cc1c[nH]c2ccccc12)NC(=O)CNC(=O)[C@H](CO)NC(=O)[C@H](Cc1ccc(O)cc1)NC(=O)[C@H](CCC(=O)O)NC(=O)[C@H](CC(N)=O)NC(=O)[C@H](CCSC)NC(=O)[C@@H](Cc1c[nH]c2ccccc12)NC(=O)[C@H](CO)NC(=O)[C@@H](CC(C)C)NC(=O)[C@H](CC(N)=O)NC(=O)[C@@H](CCSC)NC(=O)[C@H](CCC(=O)O)NC(=O)CNC(=O)[C@H](CCCNC(=N)N)NC(C)=O)[C@H](C)O)C(=O)NCC(=O)N[C@@H](CCCNC(=N)N)C(N)=O, Designed α-sheet single-turn hairpin peptide with alternating L/D residues in the strands; Made by solid phase synthesis; In the BLI assay it was loaded on an aminopropylsilane (APS) sensor tip at 180 µM; also called α1) [AP90 (Alternating Peptide #90)] |  | 1 to 1.5 | 81 | 73 | ~100
